# B1: SIX6 (protein, UniProt Q9QZ28 1-246, looked up)
# Homeobox protein SIX6: MFQLPILNFSPQQVAGVCETLEESGDVERLGRFLWSLPVAPAACEALNKNESVLRARAIVAFHGGNYRELYHILENHKFTKESHAKLQALWLEAHYQEAEKLRGRPLGPVDKYRVRKKFPLPRTIWDGEQKTHCFKERTRHLLREWYLQDPYPNPSKKRELAQATGLTPTQVGNWFKNRRQRDRAAAAKNRLQQQVLSQGPGRVLRSEGEGTPEVLGVASSPAASLSSKAATSAISITSSDSECDI
# B2: SETD7 (protein, UniProt Q8WTS6 1-366, looked up)
# Histone-lysine …: MDSDDEMVEEAVEGHLDDDGLPHGFCTVTYSSTDRFEGNFVHGEKNGRGKFFFFDGSTLEGYYVDDALQGQGVYTYEDGGVLQGTYVDGELNGPAQEYDTDGRLIFKGQYKDNIRHGVCWIYYPDGGSLVGEVNEDGEMTGEKIAYVYPDERTALYGKFIDGEMIEGKLATLMSTEEGRPHFELMPGNSVYHFDKSTSSCISTNALLPDPYESERVYVAESLISSAGEGLFSKVAVGPNTVMSFYNGVRITHQEVDSRDWALNGNTLSLDEETVIDVPEPYNHVSKYCASLGHKANHSFTPNCIYDMFVHPRFGPIKCIRTLRAVEADEELTVAYGYDHSPPGKSGPEAPEWYQVELKAFQATQQK
# B3: SIX2 (protein, UniProt Q9NPC8 1-291, looked up)
# Homeobox protein SIX2: MSMLPTFGFTQEQVACVCEVLQQGGNIERLGRFLWSLPACEHLHKNESVLKAKAVVAFHRGNFRELYKILESHQFSPHNHAKLQQLWLKAHYIEAEKLRGRPLGAVGKYRVRRKFPLPRSIWDGEETSYCFKEKSRSVLREWYAHNPYPSPREKRELAEATGLTTTQVSNWFKNRRQRDRAAEAKERENNENSNSNSHNPLNGSGKSVLGSSEDEKTPSGTPDHSSSSPALLLSPPPPGLPSLHSLGHPPGPSAVPVPVPGGGGADPLQHHHGLQDSILNPMSANLVDLGS
# B4: SMAD4 (protein, UniProt Q13485 1-552, looked up)
# Mothers against …: MDNMSITNTPTSNDACLSIVHSLMCHRQGGESETFAKRAIESLVKKLKEKKDELDSLITAITTNGAHPSKCVTIQRTLDGRLQVAGRKGFPHVIYARLWRWPDLHKNELKHVKYCQYAFDLKCDSVCVNPYHYERVVSPGIDLSGLTLQSNAPSSMMVKDEYVHDFEGQPSLSTEGHSIQTIQHPPSNRASTETYSTPALLAPSESNATSTANFPNIPVASTSQPASILGGSHSEGLLQIASGPQPGQQQNGFTGQPATYHHNSTTTWTGSRTAPYTPNLPHHQNGHLQHHPPMPPHPGHYWPVHNELAFQPPISNHPAPEYWCSIAYFEMDVQVGETFKVPSSCPIVTVDGYVDPSGGDRFCLGQLSNVHRTEAIERARLHIGKGVQLECKGEGDVWVRCLSDHAVFVQSYYLDREAGRAPGDAVHKIYPSAYIKVFDLRQCHRQMQQQAATAQAAAAAQAAAVAGNIPGPGSVGGIAPAISLSAAAGIGVDDLRRLCILRMSFVKGWGPDYPRQSIKETPCWIEIHLHRALQLLDEVLHTMPIADPQPLD
# B5: SMAD3 (protein, UniProt P84022 2-425, looked up)
# Mothers against …: SSILPFTPPIVKRLLGWKKGEQNGQEEKWCEKAVKSLVKKLKKTGQLDELEKAITTQNVNTKCITIPRSLDGRLQVSHRKGLPHVIYCRLWRWPDLHSHHELRAMELCEFAFNMKKDEVCVNPYHYQRVETPVLPPVLVPRHTEIPAEFPPLDDYSHSIPENTNFPAGIEPQSNIPETPPPGYLSEDGETSDHQMNHSMDAGSPNLSPNPMSPAHNNLDLQPVTYCEPAFWCSISYYELNQRVGETFHASQPSMTVDGFTDPSNSERFCLGLLSNVNRNAAVELTRRHIGRGVRLYYIGGEVFAECLSDSAIFVQSPNCNQRYGWHPATVCKIPPGCNLKIFNNQEFAALLAQSVNQGFEAVYQLTRMCTIRMSFVKGWGAEYRRQTVTSTPCWIELHLNGPLQWLDKVLTQMGSPSIRCSSVS
# B6: SIX3 (protein, UniProt O95343 1-332, looked up)
# Homeobox protein SIX3: MVFRSPLDLYSSHFLLPNFADSHHRSILLASSGGGNGAGGGGGAGGGSGGGNGAGGGGAGGAGGGGGGGSRAPPEELSMFQLPTLNFSPEQVASVCETLEETGDIERLGRFLWSLPVAPGACEAINKHESILRARAVVAFHTGNFRDLYHILENHKFTKESHGKLQAMWLEAHYQEAEKLRGRPLGPVDKYRVRKKFPLPRTIWDGEQKTHCFKERTRSLLREWYLQDPYPNPSKKRELAQATGLTPTQVGNWFKNRRQRDRAAAAKNRLQHQAIGPSGMRSLAEPGCPTHGSAESPSTAASPTTSVSSLTERADTGTSILSVTSSDSECDV
# B7: SETD8 (protein, UniProt Q9NQR1 1-393, looked up)
# N-lysine methyltransferase …: MGEGGAAAALVAAAAAAAAAAAAVVAGQRRRRLGRRARCHGPGRAAGGKMSKPCAVEAAAAAVAATAPGPEMVERRGPGRPRTDGENVFTGQSKIYSYMSPNKCSGMRFPLQEENSVTHHEVKCQGKPLAGIYRKREEKRNAGNAVRSAMKSEEQKIKDARKGPLVPFPNQKSEAAEPPKTPPSSCDSTNAAIAKQALKKPIKGKQAPRKKAQGKTQQNRKLTDFYPVRRSSRKSKAELQSEERKRIDELIESGKEEGMKIDLIDGKGRGVIATKQFSRGDFVVEYHGDLIEITDAKKREALYAQDPSTGCYMYYFQYLSKTYCVDATRETNRLGRLINHSKCGNCQTKLHDIDGVPHLILIASRDIAAGEELLYDYGDRSKASIEAHPWLKH
# B8: SIX1 (protein, UniProt Q15475 1-284, looked up)
# Homeobox protein SIX1: MSMLPSFGFTQEQVACVCEVLQQGGNLERLGRFLWSLPACDHLHKNESVLKAKAVVAFHRGNFRELYKILESHQFSPHNHPKLQQLWLKAHYVEAEKLRGRPLGAVGKYRVRRKFPLPRTIWDGEETSYCFKEKSRGVLREWYAHNPYPSPREKRELAEATGLTTTQVSNWFKNRRQRDRAAEAKERENTENNNSSSNKQNQLSPLEGGKPLMSSSEEEFSPPQSPDQNSVLLLQGNMGHARSSNYSLPGLTASQPSHGLQTHQHQLQDSLLGPLTSSLVDLGS
# B9: SIRT2 (protein, UniProt Q8IXJ6 2-389, looked up)
# NAD-dependent protein …: AEPDPSHPLETQAGKVQEAQDSDSDSEGGAAGGEADMDFLRNLFSQTLSLGSQKERLLDELTLEGVARYMQSERCRRVICLVGAGISTSAGIPDFRSPSTGLYDNLEKYHLPYPEAIFEISYFKKHPEPFFALAKELYPGQFKPTICHYFMRLLKDKGLLLRCYTQNIDTLERIAGLEQEDLVEAHGTFYTSHCVSASCRHEYPLSWMKEKIFSEVTPKCEDCQSLVKPDIVFFGESLPARFFSCMQSDFLKVDLLLVMGTSLQVQPFASLISKAPLSTPRLLINKEKAGQSDPFLGMIMGLGGGMDFDSKKAYRDVAWLGECDQGCLALAELLGWKKELEDLVRREHASIDAQSGAGVPNPSTSASPKKSPPPAKDEARTTEREKPQ
# B10: BCL11A (protein, UniProt Q9H165 1-835, looked up)
# BCL11 transcription factor A: MSRRKQGKPQHLSKREFSPEPLEAILTDDEPDHGPLGAPEGDHDLLTCGQCQMNFPLGDILIFIEHKRKQCNGSLCLEKAVDKPPSPSPIEMKKASNPVEVGIQVTPEDDDCLSTSSRGICPKQEHIADKLLHWRGLSSPRSAHGALIPTPGMSAEYAPQGICKDEPSSYTCTTCKQPFTSAWFLLQHAQNTHGLRIYLESEHGSPLTPRVGIPSGLGAECPSQPPLHGIHIADNNPFNLLRIPGSVSREASGLAEGRFPPTPPLFSPPPRHHLDPHRIERLGAEEMALATHHPSAFDRVLRLNPMAMEPPAMDFSRRLRELAGNTSSPPLSPGRPSPMQRLLQPFQPGSKPPFLATPPLPPLQSAPPPSQPPVKSKSCEFCGKTFKFQSNLVVHRRSHTGEKPYKCNLCDHACTQASKLKRHMKTHMHKSSPMTVKSDDGLSTASSPEPGTSDLVGSASSALKSVVAKFKSENDPNLIPENGDEEEEEDDEEEEEEEEEEEEELTESERVDYGFGLSLEAARHHENSSRGAVVGVGDESRALPDVMQGMVLSSMQHFSEAFHQVLGEKHKRGHLAEAEGHRDTCDEDSVAGESDRIDDGTVNGRGCSPGESASGGLSKKLLLGSPSSLSPFSKRIKLEKEFDLPPAAMPNTENVYSQWLAGYAASRQLKDPFLSFGDSRQSPFASSSEHSSENGSLRFSTPPGELDGGISGRSGTGSGGSTPHISGPGPGRPSSKEGRRSDTCEYCGKVFKNCSNLTVHRRSHTGERPYKCELCNYACAQSSKLTRHMKTHGQVGKDVYKCEICKMPFSVYSTLEKHMKKWHSDRVLNNDIKTE
# B11: SMAD7 (protein, UniProt O15105 1-426, looked up)
# Mothers against …: MFRTKRSALVRRLWRSRAPGGEDEEEGAGGGGGGGELRGEGATDSRAHGAGGGGPGRAGCCLGKAVRGAKGHHHPHPPAAGAGAAGGAEADLKALTHSVLKKLKERQLELLLQAVESRGGTRTACLLLPGRLDCRLGPGAPAGAQPAQPPSSYSLPLLLCKVFRWPDLRHSSEVKRLCCCESYGKINPELVCCNPHHLSRLCELESPPPPYSRYPMDFLKPTADCPDAVPSSAETGGTNYLAPGGLSDSQLLLEPGDRSHWCVVAYWEEKTRVGRLYCVQEPSLDIFYDLPQGNGFCLGQLNSDNKSQLVQKVRSKIGCGIQLTREVDGVWVYNRSSYPIFIKSATLDNPDSRTLLVHKVFPGFSIKAFDYEKAYSLQRPNDHEFMQQPWTGFTVQISFVKGWGQCYTRQFISSCPCWLEVIFNSR
# B12: SIM1 (protein, UniProt P81133 1-766, looked up)
# Single-minded homolog 1: MKEKSKNAARTRREKENSEFYELAKLLPLPSAITSQLDKASIIRLTTSYLKMRVVFPEGLGEAWGHSSRTSPLDNVGRELGSHLLQTLDGFIFVVAPDGKIMYISETASVHLGLSQVELTGNSIYEYIHPADHDEMTAVLTAHQPYHSHFVQEYEIERSFFLRMKCVLAKRNAGLTCGGYKVIHCSGYLKIRQYSLDMSPFDGCYQNVGLVAVGHSLPPSAVTEIKLHSNMFMFRASLDMKLIFLDSRVAELTGYEPQDLIEKTLYHHVHGCDTFHLRCAHHLLLVKGQVTTKYYRFLAKHGGWVWVQSYATIVHNSRSSRPHCIVSVNYVLTDTEYKGLQLSLDQISASKPAFSYTSSSTPTMTDNRKGAKSRLSSSKSKSRTSPYPQYSGFHTERSESDHDSQWGGSPLTDTASPQLLDPADRPGSQHDASCAYRQFSDRSSLCYGFALDHSRLVEERHFHTQACEGGRCEAGRYFLGTPQAGREPWWGSRAALPLTKASPESREAYENSMPHIASVHRIHGRGHWDEDSVVSSPDPGSASESGDRYRTEQYQSSPHEPSKIETLIRATQQMIKEEENRLQLRKAPSDQLASINGAGKKHSLCFANYQQPPPTGEVCHGSALANTSPCDHIQQREGKMLSPHENDYDNSPTALSRISSPNSDRISKSSLILAKDYLHSDISPHQTAGDHPTVSPNCFGSHRQYFDKHAYTLTGYALEHLYDSETIRNYSLGCNGSHFDVTSHLRMQPDPAQGHKGTSVIITNGS
# Test system: HEK293FT cells transfected with TF library
# Assay: Screening of TF condensates based on fluorescent puncta
# Format: cell-based
# Conditions: Figure 1B numerical data; TF library screen, one value per transcriptional factor
# Method in brief: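 HEK293FT cells were reverse-transfected with Flag- or GAL4-tagged TF plasmids (1.6 μg/ml, PEI). After 60 h, cells were cultured 12 h with or without glucose, then fixed and immunostained with anti-Flag or anti-GAL4 and Alexa 488 secondaries. Fluorescent puncta were imaged over fifty random fields per well by high-content imaging.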
row,Molecule,Z score of condensed fraction
1,B1,1.297
2,B2,0.4495
3,B3,-0.1884
4,B4,-0.5517
5,B5,-0.8472
6,B6,-0.646
7,B7,-0.8816
8,B8,-0.6669
9,B9,0.4793
10,B10,-0.5173
11,B11,-1.192
12,B12,-1.099
